Laboratory results: publication PMC9907810 (2023)

Target: SARS-CoV-2 receptor-binding domain (RBD), prototype (Wuhan-Hu-1), Avi-tagged and biotinylated (SARS-CoV-2)
Assay: BLI

B1: Ab08 single-chain fragment variable (scFv) (scFv, V domains shown)
VH: QVQLVQSGAEVKKPGSSVKVSCKASGGTFSSYTISWVRQAPGQGLEWMGGIIPILGTTNYAQKFQGRVTITADESTSTAYMELSSLRSEDTAVYYCARKFGYSGYGATWYFDLWGRGTLVTVSS
VL: QSVLTQPPSVSGAPGQRVTISCTGNSSNIGAGYDVHWYQQFPGTAPKLLIYGNSNRPSGVPDRFSGSKSGTSASLAITGLQAEDEADYYCQSYDSSLSGSVFGGGTKLTVL
Which koff does the source give for B1 here?
The koff was 7.5e-05 s⁻¹.
